{
  "source": "paper doi:10.1101/2021.05.25.445634",
  "target": "TnsC of the type V-K CRISPR-associated transposase system from S. hofmanni (ShCAST) (S. hofmanni)",
  "assay": "cryo-EM structure",
  "data": [
    {"substance": "TnsC of the type V-K CRISPR-associated transposase system from S. hofmanni (ShCAST) (natural protein)", "values": [
      {"measurement": "stoichiometry N", "value": 12, "unit": "subunits"}
    ]}
  ]
}
